Where a chain is given by its changes, count along the chain named. Like-named read-outs stand apart in the source and are kept apart here. Each block holds one binder with its values, some of them ahead of it. Ends that are not written are not given here. * marks the point of attachment. Biotin = O=C1N[C@H]2[C@H](CS[C@H]2CCCCC(=O)*)N1
Key:
[1] = target: T1, aggregated A-beta(1-40) peptide (BAA) (human); assay: BAA ELISA
T1 construct: also called A-beta peptide aggregates

[2] = target: T2, human A-beta(1-40) peptide, monomeric (BAM) (human, biotin at the C-terminus in capture ELISA, SPR and TR-FRET; not biotinylated where coated directly (Example 7)); assay: BAM ELISA
T2 construct: synthetic peptide (Anaspec), TFA/HFIP treated to give monomer; also called monomeric A-beta

[3] = target: T2, human A-beta(1-40) peptide, monomeric …; assay: TR-FRET competition, labelled ABII60A10
[4] = target: T2, human A-beta(1-40) peptide, monomeric …; assay: SPR (Biacore T100), periplasmic extracts on captured biotinylated A-beta(1-40), 1:1 model
Protocol: (§1) After capturing, surfaces are blocked by injecting an excess (200 μg/ml) of d-biotin for 180 s at 5 μl/min. A reference surface is washed and blocked with d-biotin. HBS-EP+buffer is used as the running buffer and experiments are performed at 25° C. For off-rate screening, periplasmic extracts of VHHs are injected at a 10-fold dilution for 2 min at 45 μl/min and are allowed to dissociate for 10 min. […] Between different VHH samples, the surfaces are regenerated with regeneration buffer (50 mM NaOH) for 25 s at 45 μl/min followed by 10 s 6M GuHCl at 45 μl/min if regeneration is incomplete. […] Data are double referenced by subtraction of the curves on the reference channel and of a blank running buffer injection. Sensorgrams are evaluated by fitting a 1:1 dissociation model using the Biacore T100 Evaluation software v1.1.1.

A-beta(12-28) peptide = target: T3, A-beta(12-28) peptide (human); assay: SPR on captured A-beta(12-28)
T3 construct: Bachem peptide captured on streptavidin chip; also called monomeric A-beta(12-28); central region
T3 peptide: Biotin-VHHQKLVFFAEDVGSNK
Protocol: as §1

[5] = target: T4, pGlu-A-beta(1-28), C-terminally biotinylated (human, pyroglutamate formed from the glutamate at position 3 (N-terminus); biotin at the C-terminus); assay: SPR on captured C-terminally biotinylated pGlu-A-beta(1-28), 1:1 model
T4 construct: printed as pGlu-A-beta(1-28), while the text says that the first two N-terminal residues are missing; range 3-28 is my reading; also called pyroglutamyl-Abeta
Description: Association and dissociation curves can be fitted using a 1:1 interaction model and an accurate KD value can be determined.

[6] = target: T2, human A-beta(1-40) peptide, monomeric …; assay: ABII050 TR-FRET competition assay
[7] = target: T2, human A-beta(1-40) peptide, monomeric …; assay: TR-FRET competition, labelled ABII60A10; remark: listed apart in the source
[8] = target: T2, human A-beta(1-40) peptide, monomeric …; assay: ABII002 TR-FRET competition assay
[9] = target: T2, human A-beta(1-40) peptide, monomeric …; assay: ABII002 TR-FRET competition assay; remark: listed apart in the source
[10] = target: T2, human A-beta(1-40) peptide, monomeric …; assay: TR-FRET competition
[11] = target: T1, aggregated A-beta(1-40) peptide (BAA); assay: BAA ELISA; remark: listed apart in the source
[12] = target: T2, human A-beta(1-40) peptide, monomeric …; assay: cell-based or functional assay
[13] = target: T2, human A-beta(1-40) peptide, monomeric …; assay: TR-FRET competition, labelled ABII42D4
[14] = target: T2, human A-beta(1-40) peptide, monomeric …; assay: BAM ELISA; remark: listed apart in the source
[15] = target: T2, human A-beta(1-40) peptide, monomeric …; assay: TR-FRET competition; remark: listed apart in the source
[16] = target: T2, human A-beta(1-40) peptide, monomeric …; assay: 42D4 TR-FRET assay (labelled ABII42D4)
[17] = target: T2, human A-beta(1-40) peptide, monomeric …; assay: TR-FRET competition; labelled competitor not given
[18] = target: T2, human A-beta(1-40) peptide, monomeric …; assay: cell-based or functional assay; remark: listed apart in the source
[19] = target: T2, human A-beta(1-40) peptide, monomeric …; assay: TR-FRET competition, mean IC50
[20] = target: T2, human A-beta(1-40) peptide, monomeric …; assay: 60A10 TR-FRET assay (labelled ABII60A10)
[21] = target: T2, human A-beta(1-40) peptide, monomeric …; assay: ELISA, format not stated
[22] = target: T5, human A-beta peptide (residues 1-24) (human); assay: crystal structure
T5 construct: used for co-crystallisation; also called A-beta(1-24)
Protocol: The complex is concentrated by diafiltration to a concentration of 4 mg/ml. Crystallization trials are set up as sitting drop vapour diffusion experiments by mixing 200 nl of protein with 200 nl of reservoir solution against a reservoir volume of 100 μl. […] Data are collected at the beamline 6SA of the swiss light source at the Paul-Scherrer Institute in Villigen, Switzerland.

[23] = target: T2, human A-beta(1-40) peptide, monomeric …; assay: SPR, captured C-terminally biotinylated A-beta(1-40), 1:1 model
Protocol: as §1

[24] = target: T2, human A-beta(1-40) peptide, monomeric …; assay: TR-FRET competition, labelled ABII42D4; remark: listed apart in the source
A-beta(1-16) peptide = target: T6, A-beta(1-16) peptide (human); assay: SPR on captured A-beta(1-16)
T6 construct: Bachem peptide captured on streptavidin chip; also called monomeric A-beta(1-16)
T6 peptide: DAEFRHDSGYEVHHQK-biotin
Protocol: as §1

[25] = target: T2, human A-beta(1-40) peptide, monomeric …; assay: ELISA, peptide coated at 2 µg/ml, anti-myc detection
[26] = target: T7, mouse A-beta(1-40) peptide (mouse); assay: as above
T7 construct: Bachem peptide coated directly; also called rodent A-beta(1-40)
T7 peptide: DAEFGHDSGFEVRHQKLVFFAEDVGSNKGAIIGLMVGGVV

[27] = target: T2, human A-beta(1-40) peptide, monomeric …; assay: TR-FRET competition, mean IC50; mean IC50 of Table XII
[28] = target: T7, mouse A-beta(1-40) peptide; assay: ELISA EC50
[29] = target: T2, human A-beta(1-40) peptide, monomeric …; assay: TR-FRET competition and SPR

T5 sequence (peptide, as listed by the source): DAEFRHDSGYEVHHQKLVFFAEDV
T4 sequence (peptide, as listed by the source): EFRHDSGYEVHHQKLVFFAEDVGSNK

- Kd [5]: 0.224 nM
- IC50 [6]: 0.53 nM
- IC50 [7]: 0.5 nM
B2: monoclonal antibody m266 (IgG) (antibody, V domains shown)
VH: EVKLVESGGGLVQPGGSLKLSCAVSGFTFSRYSMSWVRQTPEKRLELVAQINSVGNSTYYPDTVKGRFTISRDNAEYTLSLQMSGLRSDDTATYYCASGDYWGQGTTLTVSS
VL: DVVMTQTPLSLPVSLGDQASISCRSSQSLIYSDGNAYLHWFLQKPGQSPKLLIYKVSNRFSGVPDRFSGSGSGTDFTLKISRVETEDLGVYFCSQSTHVPWTFGGGTKLEIK
notes: also called IgG m266; IgG266

- IC50 [6]: 0.28 nM
- IC50 [8]: 0.13 nM
- fold improved IC50 against monovalent ABII035 [9]: 27 fold
- fold improved potency against 3D6 IgG [9]: 14.6 fold
B3: ABII315-PEG20 (designed binder)
chain: EVQLLESGGGLVQPGGSLRLSCAASGRTFNNYNMGWFRQAPGKGREFVAAVSRSGVSTYYADSVKGRFTISRDNSKNTVYLQMNSLRPEDTAVYYCAAAYRGTAINVRRSYSSWGQGTLVTVSSGGGGCGGGSEVQLLESGGGLVQPGGSLRLSCVHSGPTFRTDTMGWFRQAPGKGREFVAAVTWNSGRINYADSVKGRFTISRDNSKNTAYLQMNSLRPEDTAVYYCAAHRFVVGGNRVEDWRYWGQGTLVTVSS
modifications: PEG20 on the Cys at position 5 of the 9GS linker
notes: 059-9GSC-035; purified as His6-tagged construct before PEGylation

- IC50 [10]: > 1000 nM
- EC50 [1]: 7.2 nM
- EC50 [2]: 98.6 nM
- EC50 [11]: 7.2 nM
- Aggregation inhibition (% inhibition at 26 µM) [12]: 29%
- IC50 [13]: > 1000 nM
- EC50 [14]: 98.6 nM
B4: reference VHH 2G6 (VHH)
VHH: QVKLEESGGGLVQPGGSLRLSCAASGFTFSNYWMYWVRQAPGKGLEWVSTISPRAANTYYADSVKGRFTISRDNAKNTLYLQMNSLEPDDTALYYCAKSLRYRDRPQSSDFLFWRQGTQVTVSS
notes: from WO2006/40153

- IC50 [24]: 2.9 nM
- EC50 [25]: 1.8 nM
- EC50 [26]: 3.3 nM
- IC50 [8]: 2.9 nM
- IC50 [27]: 2 nM
- fold difference mouse against human A-beta [28]: 1.8 fold
- fold improvement of IC50 and KD over original ABII42D4 [29]: > 10 fold
B8: ABII111B5_M107R = ABII002 (VHH)
VHH: EVQLVESGGGLVLAGGSLRLSCVHSGPTFRTDTMGWFRQAPGKEREFVAAVTWNSGRINYADSVKGRFTVSRDNTRNAAYLQMSGLKDEDTAVYYCTAHRFVVGGNRVEDWRYWGQGTQVTVSS
notes: myc-tagged in ELISA

More lines, now with the values behind:

B1: ABII60G11 (VHH)
VHH: EVQLVESGGGSEQAGGSLRLSCATSGRAFSVYAWFRQAPGKERTFVAAVAWVGGSTFYSDSVKGRFTISRDNAKNTVFLHMNSLKPEDTAAYYCAARLYGGRWYNSPRVDDFEYWGQGTQVTVSS
- EC50 [1]: 6 nM
- EC50 [2]: 187 nM
- IC50 [3]: 34.4 nM
- koff [4]: 0.027 s⁻¹
- binding result (A-beta(12-28) peptide): binds

B5: ABII60A10 = ABII050 (VHH)
VHH: EVQLVESGGGLVQAGGSLRLSCAASGRTFNNYNMGWFRQAPGKEREFVAAVSRSGVSTYYADSVKGRFTISRDNAKNAVYLQMNSLKPEDTAIYYCGAAYRGTAINVRRSYDSWGQGTQVTVSS
- IC50 [10]: 11.1 nM
- EC50 [1]: 0.8 nM
- EC50 [2]: 4.9 nM
- EC50 [11]: 0.8 nM
- IC50 [3]: 11.1 nM
- IC50 [6]: 6.3 nM
- Aggregation inhibition (% inhibition at 26 µM) [12]: 80%
- fold improved IC50 against reference VHH 2D2 [15]: 36 fold
- IC50 [16]: > 1000 nM
- IC50 [17]: 19 nM
- inhibition of peptide aggregation (ThT fluorescence), 28 µM VHH [18]: 80%
- IC50 [19]: 19 nM
- IC50 [20]: 30 nM
- EC50 [14]: 4.9 nM
- binding result (A-beta(12-28) peptide): binds

B6: ABII059 (VHH)
VHH: B5 VHH with V5L, A14P, E44G, A75S, A78T, K87R, I93V, G97A, D112S, Q119L
notes: humanized variant of ABII050
- IC50 [6]: 12.8 nM
- Aggregation inhibition (% inhibition at 26 µM) [12]: 80%
- fold difference of EC50 against the 2D2 and 2G6 VHHs [21]: > 50 fold
- IC50 [17]: 33 nM
- IC50 [19]: 33 nM
- binding result [22]: binds

B7: ABII42D4 (VHH)
VHH: B8 VHH with R30S, I58T, F101L, N106T, R107S, E109G
notes: also called ABIIPMP42D4
- Kd [23]: 16 nM
- IC50 [24]: 44 nM
- IC50 [10]: 46.8 nM
- EC50 [1]: 0.9 nM
- EC50 [2]: 14.2 nM
- EC50 [11]: 0.9 nM
- koff [4]: 0.0061 s⁻¹
- fold improved IC50 against reference VHH 2G6 [15]: ≥ 21 fold
- IC50 [16]: 51 nM
- binding result (A-beta(1-16) peptide): binds
- IC50 [13]: 46.8 nM
- IC50 [20]: > 1000 nM
- EC50 [14]: 14.2 nM

B9: ABII111B5_E109Q (VHH)
VHH: B8 VHH with R107M, E109Q
notes: targeted mutant
- IC50 [24]: 3.7 nM
- fold improvement of IC50 and KD over original ABII42D4 [29]: > 10 fold

B10: ABII111B5_M107E (VHH)
VHH: B8 VHH with R107E
notes: targeted mutant
- IC50 [24]: 4.3 nM
- fold improvement of IC50 and KD over original ABII42D4 [29]: > 10 fold

— patent publication US20120058118A1 (Boehringer Ingelheim, published 2012)
